Values joined by “and” are separate entries in the source; they are usually repeats but may differ in a detail not shown here. Equal entries are not always repeated.
Molecular target: ONE-GC fragment aa 836-1110 (UniProt P51839 836-1110)
Test: SPR

ONE-GC fragment aa 836-1110, sequence (P51839 836-1110): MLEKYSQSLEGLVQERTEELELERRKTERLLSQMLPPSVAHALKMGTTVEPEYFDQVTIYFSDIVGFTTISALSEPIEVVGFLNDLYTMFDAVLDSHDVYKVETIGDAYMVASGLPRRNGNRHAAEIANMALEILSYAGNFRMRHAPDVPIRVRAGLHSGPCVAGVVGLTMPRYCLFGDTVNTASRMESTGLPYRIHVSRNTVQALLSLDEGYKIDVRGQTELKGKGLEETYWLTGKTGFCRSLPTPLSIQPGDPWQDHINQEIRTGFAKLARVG

EC50: 500 nM
Kd: 650 nM and 670 nM
B1: GCAP1 (guanylate cyclase activating protein 1), purified recombinant (natural protein, UniProt P46065 1-205, looked up)
chain: MGNIMDGKSVEELSSTECHQWYKKFMTECPSGQLTLYEFRQFFGLKNLSPWASQYVEQMFETFDFNKDGYIDFMEYVAALSLVLKGKVEQKLRWYFKLYDVDGNGCIDRDELLTIIRAIRAINPCSDSTMTAEEFTDTVFSKIDVNGDGELSLEEFMEGVQKDQMLLDTLTRSLDLTRIVRRLQNGEQDEEGASGRETEAAEADG

From publication PMC2936275 (Biochemistry, 2010)
